Laboratory results from the DeepSol protein solubility set.

Experiment: soluble on expression in E. coli; label from the status in PepcDB or PDB records

| Sequence | soluble on expression in E. coli |
| --- | --- |
| GPGPAIGEVIGISVNDPRVKEIAEFALKQHAEQNLILAGVDAGQIIKGIPHWDNYYNLILSAKHSPHEFSKFYNVVVLEKASDNSLKLVAFVPLF | soluble |
| SLSKKSVQTLEDIARLANVSRSTVSRALNNSPLISKQTRERIQAIAREHNFCLNVSGRNLRLRSSRTIAFVAPMCFPPVASAEHLFGLEMLGAIWSGLHELNYDCLIVHSASQDTDWVHRYLHSGRVDGFILMESSFKQTQIEALVQMKVPFIVWGMPVSPFNYCSVTGDNVAGGRLATEYLIRTGRQRIAFLGGLKGTLTVENRFKGYEQALQLAGRALDPALIVYGDYTYASGAAGMQRLLERAPDLDAVFVNSDLMAIAAINVIQESGRSVPADIAVVGYDDLSIAGYATLPLTTIRQNIPLAGKLLAQNLIQHIETGLVTNVTVPVELVIRKSEG | not soluble |
| MLIEPRDPLIVRDGRPFTNSPGARAKSLPFPLPQTLAGAYRTRRALLEGLPLPERAEEVLRWGLRGPLLAEEGEGGWRLLAPRPLDALKLGEALYPLRPLELPQGAGTNLPEGLSPVGLPSPALKEKPAPLPAFWYWESFLEWLLQDAPAGFAPRGHEGPVPETRTHVALDPAAQTAREGFLFQTSGLEFVRGRRRLALVLWPEGPEPEGVFPLGGERRLAFWQKGGPGVPPLPEEVVAGLLRHRAARLVFLTPAFLGEAYLPKGRAFQGASVVAAVVGRPLAVSGWNLKEGKPKPSRRAVPAGSVYFVRLPEAWGEGEVRDWAEKVWFQNLSEEEQDRRDGFGLAALGLWDGKLRRWEEA | soluble |
| MGSENSALKSYTLREPPFTLPSGLAVYPAVLQDGKFASVFVYKRENEDKVNKAAKHLKTLRHPCLLRFLSCTVEADGIHLVTERVQPLEVALETLSSAEVCAGIYDILLALIFLHDRGHLTHNNVCLSSVFVSEDGHWKLGGMETVCKVSQATPEFLRSIQSIRDPASIPPEEMSPEFTTLPECHGHARDAFSFGTLVESLLTILNEQVSADVLSSFQQTLHSTLLNPIPKCRPALCTLLSHDFFRNDFLEVVNFLKSLTLKSEEEKTEFFKFLLDRVSCLSEELIASRLVPLLLNQLVFAEPVAVKSFLPYLLGPKKDHAQGETPCLLSPALFQSRVIPVLLQLFEVHEEHVRMVLLSHIEAYVEHFTQEQLKKVILPQVLLGLRDTSDSIVAITLHSLAVLVSLLGPEVVVGGERTKIFKRTAPSFTKNTDLSLEGDPFSQPIKFPINGLSDVKNTSEDSENFPSSSKKSEEWPDWSEPEEPENQTVNIQIWPREPCDDVKSQCTTLDVEESSWDDCEPSSLDTKVNPGGGITATKPVTSAEQKPIPALLSLTEESMPWKSSLPQKISLVQRGDDADQIEPPKVSSQERPLKVPSELGLGEEFTIQVKKKPVKDPEMDWFADMIPEIKPSAAFLILPELRTEMVPKKDDVSPVMQFSSKFAAAEITEGEAEGWEEEGELNWEDNNW | soluble |
| MGSDKIHHHHHHMTSADNILAHASAMRQFSQFAGVAGLDLRRACPPDVYAFVEQAQDAEWLPATAHVDVLQAAAIASGRADLGVAFAMWCNIRGFGPVSLLWDHCTTVDEASRITRRYMHLESAAMRSSTDTDGHEAALRHILMVPARFGGSQFLQATLALQLRIIRMLLGEEWTPIRLELDHPAPPSYRYHQAVFRCPIEFEADRCALVFRKSDLHRPSLRGNANMVQYLERQLAHADSHWPGDLVQQIRYFVAANLTERKANLAHVSGLAGLSSQSLQRRLAERGTTFATILEEVRKQTADEYFRTARRPNLTELSHRLGYTDASAASRFLRQHMSTGARALMAQVRPGRGRPGSARALAAEA | not soluble |
| MVIEVPQTERVNDVDVFLSTQDGQIQRPKGPNCRHPVRQKCTNCLPVDPFDEEYLKEKDIKHMSFHAHVRKLLGSQGKGTTLKKPLENFRCSLKPNCDAHKPFPKGICTKCKPQVVTLNRQKFRHVDNIQIENQELVNQFLDYWRLSGHQRVGFLIGQYQPHLEVPLGIKATVAAIYEPPQHCREDGIEFLEDKNQKTIDNLLEMLGLQRVGWIFTDCWTANSAEGTVHYTRHKDSFFLSAEECITAAMLQNQHPNITEYSMDRHYGSKFVTVVASGDESMHVNFHGYQVSNQCAAMVEADILCPTLYTPELAYVRETPLSEEHYITDVQFSMKNEYGAEVMKNGRPLPVEYLLVDVPAGMPKEPHYTFHVGTSNKSKSAKFNVENRQAIGQLQGGANLIQYSSEFSTNQFLEQATNFHFLLYLVTNDQVQISDEWMKRLCDAVKAQDRGTAMEWAQECEDWHQLMALAHANGGSGNDDIPVIPNGDPFSGSSSGGSRGAVWSCGHCTFQNEAGRQDCSMCGLPAAD | not soluble |
| MDTVTKLSIIIPAWNEETGIARTLETLLALTAGRGDTEIIVSVSGNDRTKAIARTFPVVVCHSEKGRAVQMNAGAKLATGSILYFLHADTTPPPSFCDDIFSAIERGARAGCFRMTFDDPDWLMQLYGWFTQFPLPVCRGGDQSLFITKELFGQIGGFDERLQIMEDIEIIDRLQRHAGFHILDSTVTTSARKYHTNGTVRLQAIFGTIHLMYALGFSQKNIVAFYRDSIRLEHHHHHH | not soluble |
| MSLLIDFIDETEEVKEEYMSLIREVLEKAAQMENIEDGAEVSVTFVDNERIREINRDYRDKDQPTDVISFAMEEMGEGEMEIVGAEMPRMLGDLIISIPRAKEQAEEYGHSFDRELGFLALHGFLHLLGYDHMTEEDEKEMFGRQKEILEAFGLGR | not soluble |
| MGIRPSADEQDQCFMTRITIVTDAWHPQVNGVVRSIENTNTELARLGVDVRMVTPQSFYSIPCPTYPEIRLSVAGYRRVAVEIEKSQPSFVHIATEGPLGFMARRWCVKNHMRFSTSYHTRFPEYVAARFPVPESWLYAFVRWFHNGGNTCMVATPSLETELEARGVRNLKRWSRGIDAELFHPRTKTKLPFDLPRPIFMTVGRVAVEKNLPEFLDLDLPGSKIVIGDGPARYELQEKYPDVLFTGIKTGEELADAYAQADVFVFPSKTDTFGNTILEALASGVPVAAFPVTGPIDILGGNPAAGALDNNLRDACLAALHCSPQAALALSKSYSWEKASRQFLDNVIHAAGKSLPLLSRSRLAAAALEHHHHHH | not soluble |
| MGSDKIHHHHHHSDQYSTETFWKTKEHASAGIMGCYNALKLWRSLHTMEFDMLTANAMPYNEANGTQAIGKGEHLSTTALIGSLWKNCYVGIGRTNTFIANVGGVDMDESEKAKMVGEAKFLRAFYYLSLVDKFGGVPLIIDAPNADEQAELPRNSKEEVVNQIVKDLEEAAAVLPDTYASSDLGRATKGAALALKARTLLYNSRWAEAAQAAKQVMESGVYQLFNDYRHFFSEDNKYNCEVIFDIEAKLPEYPTDYDQNIWRLNRPAPLKELVDTYLCVDGKTIEESPLYDPTRPYENRDPRLLKSIVCIGYPYLGKTITKEDVATTGFGVKKYTSYEDDVTIPLVERSAFNFILIRYAEVLLTYAEAQNEASGPDQSVYDAINQLRRRPDINMPEVPKGLTKDQMREVIRRERRIELTFEGLYYSDILRWKTAEKENNGMMHNYEGIEVVKRSFNPKRDYLWPIPYNQTVLNPNLEQNPNWD | not soluble |
| MIRQTLWSDVAAPLQNAFQTNNSGNRPVLMMLGGYTFSLASLVYQELARVNEYRWAAIERYGQRDARQYTGPGDESIELPGIAYPDWQGQRASLDELRALAAQGKPLQLIDSNGLIHGWYVIERIEERQSDHHPNGTPRRIEFTLALQRVNDDHAVEATP | not soluble |
| MLASFLKLKTYCEQEGFKGWDPYDGLNSKVFRALPLLKQSALCRLIVIQGFKRSPINLRRLALVPKEYNAKGIGLFLQGYCNLYRLVERNPQLTKELGSREELLEQVKKLADLLLELRSPGDYSGACWGYNFDWQARRLFLFPKYTPTVVATNFCATALMEAYEVTRQQEYLDVALSAAQFVIKDLHRTAYRDGFLFSYSPLDGNDTVFNASLLGARLLSYCYHYTKDEAYRTLARQTISACCAAQAEDGSWVYGMLPVQSWIDSFHTGYNLDALIAYQELTGDISFAENIERGLSYYLEHFFEADGMPKYYHDRTYPIDIHCPGQLFVSLARLHRYDEHRELVDRVMAWTISSMQDKKGYFYYQMKPGLSSKIPYMRWSNAFMFCAMSYYLINYKEISGGDFSNDQ | not soluble |
| MGSDKIHHHHHHMMTLTVEYYFTHPQDKLGMYASDPEDNSQEHGHEFAELVIVEEGHGLHVINGRPLYIQQGDVFYVQPGDVHYYDELGTLKLINVLINPAVAFGYLQQMEGLLQQLSAQRAACYGWLAPETRSYCRELVEKIFSPALRAADNTPLRESLFFQLVTTILTAESEAEYSSTRYKLHKLLTWLQEHCFEEHNWQQLAEQFHLTTRTAFRHIKEATGLTPDNYLKRLRLVSARVKLRETEMTITEVAYLCGFANSNHFTTLYKKVFGLTPSADRRRPPG | not soluble |
| MNKIFIYAGVRNHNSKTLEYTKRLSSIISSRNNVDISFRTPFNSELEISNSDSEELFKKGIDRQSNADDGGVIKKELLESDIIIISSPVYLQNVSVDTKNFIERIGGWSHLFRLAGKFVVTLDVAESNGSDNVSEYLRDIFSYMGGQILHQVSITNSLKDIAEAQLMEATYKIEDVLEGKIKYKTTDYQERAYQTLKLILENYDSEHFEKMYWEKKRLFEANSLEEWYYVENIKLEHHHHHH | soluble |
| HQRWHKKASVLIYGAGSSGRQLATALSQGPEYHAVAFIDDYKALQGQIIQGIPVYSPEEISHVVERKTVQKILLAIPSASRARRKQVLAKIDCLGIQVLTIPGMADIVEGKAKLEEFKDVGVEDLLGRDSVEPKPELMNADIAD | not soluble |
| AFVQEPLPFDPGALEPYGMSAKTLEFHYGKHHKGYVDNLNKLTQDTELADKSLEDVIRTTYGDAAKVGIFNNAAQVWNHTFFWNSLKPGGGGVPTGDVAARINSAFGSYDEFKAQFKNAAATQFGSGWAWLVLEAGTLKVTKTANAENPLVHGQVPLLTIDVWEHAYYLDYQNRRPDFIDNFLNQLVNWDFVAKNLAAA | soluble |
| MKLNIRAQTAQNQHNNSPIVLVHGLFGSLDNLGVLARDLVNDHNIIQVDMRNHGLSPRDPVMNYPAMAQDLVDTLDAQQIDKATFIGHSMGGKAVMALTALASDRIDKLVAIDIAPVDYHVRRHDEIFAAINAVSESDAQTRQQAAAIMRQHLNEEGVIQFLLKSFVDGEWRFNVPVLWDQYPHIVGWEKIPAWDHPALFIPGGNSPYVSEQYRDDLLAQFPQARAHVIAGAGHWVHAEKPDAVLRAIRRYLND | not soluble |
| RHRCIGLTVETKPDWFFEREIDEALAYGTTKVELGVQNIDDRILAINNRGHTVADIARSTQLARDAGLKIVYHIMPGMYGSSFEKDLKSFDLMINDERFKPDMLKIYPTLVTQGTGLYNLWKNGKYRPYTTAETVDLIVEFMRRMPDWIRIQRIQR | not soluble |
| MSLSRLLPDPDVAGAWMVRVGDADQSWIDPDDPTRLEFDYMQRIADHLDVHRPAGERMRVIHLGGAGMCLARYVAATRPTSPQIVCEPDAELTAEVRLKAPLPVRSGIKVRPVDGRSGVAAMREDFADVVILDAFDGARVPGDLVTVEFFADVSRILHSDGIGVANLADSAPLVWTKRVVRSVKEVFSNVCMAAEPATLKGRRYGNIVLAASNGPLHEEDLTRRCSGAAVPFRFIAGDALAKLLADARPFHDGDTESSEGHHHHHH | not soluble |
| MENKYTHGVLFYHEHSGLKNINQGIGEVTTALSSICKHLSIQLSENEGDIIKYCQEIKTKNYAKDVDILFILGGDGTVNELINGVMSHDLQLPIGILPGGTFNDFTKTLNIAPNHKQASEQMISAQVGTYDVIKINNQYALNFVGLGLIVQNAENVQDGSKDIFGKLSYIGSTVKTLLNPTQFNYQLSIDDKTYSGETTMILTANGPFIGGSRIPLTDLSPQDGELNTFIFNEQSFSILNDIFKKRDSMNWNEITQGIEHIPGKKISLTTDPAMKVDIDGEISLETPIDIEVIPNAIQLLTVNDL | soluble |
| MKFIQNLTKIHQSTSHMAHAHRSDSAVDSQVASTLREDTVARFSMLMKHPRSLARPTVTWRPPSLKLVGLHSTISPQPHLVASISRRRIGPSVKARLKGFGVRQQPAYLMSVRISDSKSNNVSFEHAEQWMLQLVGPQYAECIHMITDHGQCPVFVWIVGGDFQPLPSPASMFQTFQAAA | not soluble |
